Where no end group is shown, it is not given here.
T1: pS2 CTD diheptapeptide (also: pS2: Ser2 phosphorylated, which heptad repeat(s) not given here)
T1 peptide: YSPTSPSYSPTSPS

T2: pS2pS7 CTD diheptapeptide (also: pS2pS7: Ser2 and Ser7 phosphorylated, which heptad repeat(s) not given here)
T2 peptide: YSPTSPSYSPTSPS

T3: pS2pS5 CTD diheptapeptide (also: pS2pS5: Ser2 and Ser5 phosphorylated, which heptad repeat(s) not given here)
T3 peptide: YSPTSPSYSPTSPS


Experiments:
[1] = target: pS2 CTD diheptapeptide; test: fluorescence correlation spectroscopy
[2] = target: pS2pS5 CTD diheptapeptide; test: fluorescence correlation spectroscopy
[3] = target: T1, pS2 CTD diheptapeptide; test: fluorescence polarisation
[4] = target: T2, pS2pS7 CTD diheptapeptide; test: fluorescence polarisation
[5] = target: T3, pS2pS5 CTD diheptapeptide; test: fluorescence polarisation

Molecule	stoichiometry N [1]	stoichiometry N [2]	fold reduction of binding against SPOC WT [3]	fold reduction of binding against SPOC WT [4]	fold reduction of binding against SPOC WT [5]
PHF3 SPOC domain (1199-1356aa), bacterially expressed (from UniProt Q92576 1199-1356) (domain or fragment)	1	1	–	–	–
PHF3 SPOC R1248A mutant, bacterially expressed (domain or fragment) STFLARLNFIWKGFINMPSVAKFVTKAYPVSGSPEYLTEDLPDSIQVGGAISPQTVWDYVEKIKASGTKEICVVRFTPVTEEDQISYTLLFAYFSSRKRYGVAANNMKQVKDMYLIPLGATDKIPHPLVPFDGPGLELHRPNLLLGLIIRQKLKRQHS	–	–	> 10 fold	> 10 fold	> 10 fold
